# Results published in publication PMC5435084.
# Biological target: Robo1-CC3 (UniProt Q9Y6N7)
# Experiment: SPR
# Robo1-CC3, sequence (Q9Y6N7 26-1651): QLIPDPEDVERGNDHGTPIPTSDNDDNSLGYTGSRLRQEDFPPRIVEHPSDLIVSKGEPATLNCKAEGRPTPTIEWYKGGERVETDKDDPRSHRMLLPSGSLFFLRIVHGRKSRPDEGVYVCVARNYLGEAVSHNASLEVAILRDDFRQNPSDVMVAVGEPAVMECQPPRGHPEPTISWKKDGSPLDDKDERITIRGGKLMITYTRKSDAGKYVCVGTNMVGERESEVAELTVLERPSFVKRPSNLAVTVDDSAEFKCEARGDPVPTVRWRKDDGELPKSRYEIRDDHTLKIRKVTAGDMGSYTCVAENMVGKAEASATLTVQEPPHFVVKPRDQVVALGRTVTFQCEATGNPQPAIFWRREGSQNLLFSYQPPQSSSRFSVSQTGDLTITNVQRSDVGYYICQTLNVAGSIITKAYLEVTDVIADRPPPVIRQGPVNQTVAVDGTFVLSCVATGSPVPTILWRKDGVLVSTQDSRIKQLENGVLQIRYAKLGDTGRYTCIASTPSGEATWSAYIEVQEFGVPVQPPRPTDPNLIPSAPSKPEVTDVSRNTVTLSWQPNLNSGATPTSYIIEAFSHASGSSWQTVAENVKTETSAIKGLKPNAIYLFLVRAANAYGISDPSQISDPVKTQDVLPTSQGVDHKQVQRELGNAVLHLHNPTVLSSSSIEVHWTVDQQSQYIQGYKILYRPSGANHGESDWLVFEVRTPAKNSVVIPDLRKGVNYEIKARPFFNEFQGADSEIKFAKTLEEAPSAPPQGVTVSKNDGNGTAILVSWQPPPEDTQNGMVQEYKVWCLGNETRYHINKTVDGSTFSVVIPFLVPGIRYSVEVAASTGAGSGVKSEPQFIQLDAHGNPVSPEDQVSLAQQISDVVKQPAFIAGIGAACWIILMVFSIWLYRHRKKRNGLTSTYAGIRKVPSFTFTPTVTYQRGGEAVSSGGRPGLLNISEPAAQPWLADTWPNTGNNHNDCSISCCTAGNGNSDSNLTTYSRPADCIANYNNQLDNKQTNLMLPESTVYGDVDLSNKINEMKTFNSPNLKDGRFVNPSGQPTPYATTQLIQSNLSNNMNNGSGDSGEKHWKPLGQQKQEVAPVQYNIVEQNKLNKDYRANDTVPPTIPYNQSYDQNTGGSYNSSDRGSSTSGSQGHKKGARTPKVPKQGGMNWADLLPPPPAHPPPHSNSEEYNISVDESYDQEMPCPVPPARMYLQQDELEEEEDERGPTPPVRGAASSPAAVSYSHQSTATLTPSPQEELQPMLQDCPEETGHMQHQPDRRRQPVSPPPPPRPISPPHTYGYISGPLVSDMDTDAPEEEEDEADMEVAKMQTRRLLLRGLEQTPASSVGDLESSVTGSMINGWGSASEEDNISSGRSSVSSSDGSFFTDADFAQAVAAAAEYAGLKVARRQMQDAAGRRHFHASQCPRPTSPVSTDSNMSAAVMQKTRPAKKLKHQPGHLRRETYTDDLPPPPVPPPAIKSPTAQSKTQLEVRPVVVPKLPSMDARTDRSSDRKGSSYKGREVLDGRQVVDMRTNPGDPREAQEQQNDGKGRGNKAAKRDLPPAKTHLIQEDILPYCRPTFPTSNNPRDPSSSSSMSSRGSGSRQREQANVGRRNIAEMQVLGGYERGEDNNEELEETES
substance,measurement,value
SRGAP2A:F-BARC hetero-dimer (from UniProt O75044 1-799; P0DJJ0 1-355) (complex),Kd,5.6 µM
